Experimental data taken from patent US20260232732A1 (FUNDACI INSTITUT DE RECERCA CONTRA LA LEUC MIA JOSEP …, published 2026).
Values belong to the binder of their own block, whether it stands above or below them. Where no end group is shown, it is not given here. The star is where a group is joined. Biotin = O=C1N[C@H]2[C@H](CS[C@H]2CCCCC(=O)*)N1

Columns and labels:
[1] = target: T1, Peptide 2-BSA (GSESTSSMED-C conjugated to BSA) (human); assay: ELISA; Ab 1 ug/mL; repII
T1 peptide: GSESTSSMEDC(BSA)
Method: (§1) In brief, plates with each non-conjugated peptide (50 μg/mL) or BSA-conjugated peptide (5 μg/mL) were coated in 0.58M carbonate-bicarbonate buffer pH9.5, 100 μL/well, at 4° C. […] After washing, wells were incubated with the 3, 3′,5,5′-Tetramethylbenzidine (TMB) HRP substrate and reactions were stopped with 2M HCl and OD450 was recorded.

[2] = target: T2, Peptide 4-BSA (SMEDYVNFNF-C conjugated to BSA) (human); assay: ELISA; Ab 1 ug/mL; repII
T2 peptide: SMEDYVNFNFC(BSA)
Method: as §1

[3] = target: T3, Peptide 1-BSA (MADDYGSEST-C conjugated to BSA) (human); assay: ELISA; Ab 1 ug/mL; repII
T3 peptide: MADDYGSESTC(BSA)
Method: as §1

[4] = target: T4, Peptide 3-BSA (SSMEDYVNFN-C conjugated to BSA) (human); assay: ELISA; Ab 1 ug/mL; repII
T4 peptide: SSMEDYVNFNC(BSA)
Method: as §1

[5] = target: T5, BSA (negative control coating) (bovine, UniProt P02769 25-607); assay: ELISA; Ab 1 ug/mL; repII
T5 construct: also called Negative control BSA
T5 sequence (P02769 25-607 limits assumed): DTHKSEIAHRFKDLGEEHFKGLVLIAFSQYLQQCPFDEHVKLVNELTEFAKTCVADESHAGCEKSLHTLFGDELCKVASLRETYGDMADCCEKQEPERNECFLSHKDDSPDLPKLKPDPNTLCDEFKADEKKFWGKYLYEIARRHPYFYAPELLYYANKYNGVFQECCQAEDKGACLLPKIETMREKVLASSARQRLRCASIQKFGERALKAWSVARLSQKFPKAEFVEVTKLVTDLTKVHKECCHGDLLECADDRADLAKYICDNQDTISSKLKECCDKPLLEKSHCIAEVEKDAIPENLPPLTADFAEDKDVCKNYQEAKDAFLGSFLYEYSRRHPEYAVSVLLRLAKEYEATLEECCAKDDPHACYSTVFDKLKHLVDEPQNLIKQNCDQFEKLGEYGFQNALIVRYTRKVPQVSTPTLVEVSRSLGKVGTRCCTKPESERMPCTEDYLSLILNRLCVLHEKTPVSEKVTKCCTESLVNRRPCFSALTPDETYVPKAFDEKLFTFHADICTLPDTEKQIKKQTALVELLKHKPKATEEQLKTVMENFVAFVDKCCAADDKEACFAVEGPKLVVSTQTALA
Method: as §1

[6] = target: T6, Peptide 2, non-conjugated (GSESTSSMED-C) (human); assay: ELISA; Ab 1 ug/mL; repII
T6 construct: With the extra C-terminal Cys
T6 peptide: GSESTSSMEDC
Method: as §1

[7] = target: T7, Peptide 4, non-conjugated (SMEDYVNFNF-C) (human); assay: ELISA; Ab 1 ug/mL; repII
T7 construct: With the extra C-terminal Cys
T7 peptide: SMEDYVNFNFC
Method: as §1

[8] = target: T8, Peptide 3, non-conjugated (SSMEDYVNFN-C) (human); assay: ELISA; Ab 1 ug/mL; repII
T8 construct: With the extra C-terminal Cys
T8 peptide: SSMEDYVNFNC
Method: as §1

[9] = target: T9, Peptide 1, non-conjugated (MADDYGSEST-C) (human); assay: ELISA; Ab 1 ug/mL; repII
T9 construct: With the extra C-terminal Cys
T9 peptide: MADDYGSESTC
Method: as §1

[10] = target: T10, antigen peptide-BSA (immunisation peptide #1 MADDYGSESTSSMEDYVNFNF-C conjugated to BSA) (human, extra C-terminal Cys conjugated to BSA); assay: ELISA; Ab 1 ug/mL; repII
T10 construct: also called Positive control antigen peptide-BSA; MADDY peptide
T10 peptide: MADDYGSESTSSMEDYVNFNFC
Method: as §1

[11] = target: T6, Peptide 2, non-conjugated (GSESTSSMED-C); assay: ELISA; Ab 0.25 ug/mL; repI
Method: as §1

[12] = target: T10, antigen peptide-BSA (immunisation …); assay: ELISA; Ab 0.25 ug/mL; repI
Method: as §1

[13] = target: T11, biotin-peptide MTPTDFTSPI (human, also: prints MTPTDFTSP, without I10); assay: ELISA, biotin-peptide
T11 peptide: Biotin-MTPTDFTSPI

[14] = target: T12, biotin-peptide MADDYGSEST (human); assay: ELISA, biotin-peptide
T12 peptide: Biotin-MADDYGSEST

[15] = target: T13, biotin-peptide YVNFNFTDFY (human); assay: ELISA, biotin-peptide
T13 peptide: Biotin-YVNFNFTDFY

[16] = target: T14, biotin-peptide SMEDYVNFNF (human); assay: ELISA, biotin-peptide
T14 peptide: Biotin-SMEDYVNFNF

[17] = target: T15, biotin-peptide SSMEDYVNFN (human); assay: ELISA, biotin-peptide
T15 peptide: Biotin-SSMEDYVNFN

[18] = target: T16, biotin-peptide TDFYCEKNNV (human); assay: ELISA, biotin-peptide
T16 peptide: Biotin-TDFYCEKNNV

[19] = target: T17, biotin-peptide TSSMEDYVNF (human); assay: ELISA, biotin-peptide
T17 peptide: Biotin-TSSMEDYVNF

[20] = target: T18, biotin-peptide MEDYVNFNFT (human); assay: ELISA, biotin-peptide
T18 peptide: Biotin-MEDYVNFNFT

[21] = target: T19, biotin-peptide SESTSSMEDY (human); assay: ELISA, biotin-peptide
T19 peptide: Biotin-SESTSSMEDY

[22] = target: T20, biotin-peptide FNFTDFYCEK (human); assay: ELISA, biotin-peptide
T20 peptide: Biotin-FNFTDFYCEK

[23] = target: T21, biotin-peptide DYGSESTSSM (human); assay: ELISA, biotin-peptide
T21 peptide: Biotin-DYGSESTSSM

[24] = target: T22, biotin-peptide IPNMADDYGS (human); assay: ELISA, biotin-peptide
T22 peptide: Biotin-IPNMADDYGS

biotin-peptide KNNVRQFAS = target: T23, biotin-peptide KNNVRQFAS (human); assay: ELISA, biotin-peptide
T23 peptide: Biotin-KNNVRQFAS

[25] = target: T24, biotin-peptide TSPIPNMADD (human); assay: ELISA, biotin-peptide
T24 peptide: Biotin-TSPIPNMADD

[26] = target: T25, biotin-peptide YCEKNNVRQF (human); assay: ELISA, biotin-peptide
T25 peptide: Biotin-YCEKNNVRQF

[27] = target: T26, biotin-peptide TDFTSPIPNM (human); assay: ELISA, biotin-peptide
T26 peptide: Biotin-TDFTSPIPNM

[28] = target: T27, naked peptide 1b MEDYVNFNFTDFYCEKNNVRQFAS (human); assay: ELISA, naked peptide coated
T27 construct: also called region amino acids 25 to 48
T27 peptide: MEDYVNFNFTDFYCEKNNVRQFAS
Method: (§2) The peptides were synthesized naked or with a N-terminal Biotin modification with a purity of >98%. All four scFvs were verified by ELISA that can be detected with anti-His antibodies. ELISA was performed for scFv-peptide binding validation. Briefly, naked peptides were coated (50 μg/mL) in 0.58M carbonate-bicarbonate buffer pH9.5, 100 μL/well, 4° C. O/N. Then after blocking (3% BSA-PBS, 300 μL/well 37° C. 1.5 h) and washing (PBS+Tween-20 0.05% v/v (0.05% PBST), wells were incubated with each purified scFv antibody at concentration of 1 μg/mL in PBS at 37° C. 1 h. After washing (0.05% PBST), wells were incubated with secondary antibodies (goat anti-His IgG-HRP) in PBS, 37° C., 30 min. After washing, and incubation with TMB substrate, reactions were stopped with 2M HCl and reading was quantified at OD450.

[29] = target: T28, naked peptide 1a MTPTDFTSPIPNMADDYGSESTSS (human); assay: ELISA, naked peptide coated
T28 construct: also called region 1-24
T28 peptide: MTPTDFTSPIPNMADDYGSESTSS
Method: as §2

OD450 [1]: 0.03 OD | OD450 [2]: 2.75 OD | OD450 [3]: 0.03 OD | OD450 [4]: 2.16 OD | OD450 [5]: 0.02 OD | OD450 [6]: 0.02 OD | OD450 [7]: 2.46 OD | OD450 [8]: 2.1 OD | OD450 [9]: 0.02 OD | OD450 [10]: 2.68 OD | OD450 [11]: 0.02 OD | OD450 [12]: 2.29 OD
B1: anti-CCR9 antibody clone 115 (murine, from hybridoma #115) (antibody, V domains shown)
VH: QVQLKQSGPELVKPGTSVRVSCTASGYSFTDYIIYWVKQSHGRSLEWIGYIDPNNYNTRYSQKFKGKATLTVDKSSTSAFMHLNSLTSDDSAVYYCARDVYWGQGTTLTVSS
VL: DVVMTQTPLSLTVSLGDQASISCRSSQSLVHSNGKTYLQWYLQKPGQSPKLLIYKVSNRFSGVPDRFSGSGSGTDFTLKISRVEAEDLGVYFCAQSTHVWTFGGGTKLEIKR
notes: Mouse IgG1

binding result [13]: no binding (tested: 10 ug/mL) | binding result [14]: no binding (tested: 10 ug/mL) | binding result [15]: no binding (tested: 10 ug/mL) | binding result [16]: no binding (tested: 10 ug/mL) | binding result [17]: no binding (tested: 10 ug/mL) | binding result [18]: no binding (tested: 10 ug/mL) | binding result [19]: no binding (tested: 10 ug/mL) | binding result [20]: no binding (tested: 10 ug/mL) | binding result [21]: no binding (tested: 10 ug/mL) | binding result [22]: no binding (tested: 10 ug/mL) | binding result [23]: no binding (tested: 10 ug/mL) | binding result [24]: no binding (tested: 10 ug/mL) | binding result (biotin-peptide KNNVRQFAS): no binding (tested: 10 ug/mL) | binding result [25]: no binding (tested: 10 ug/mL) | binding result [26]: no binding (tested: 10 ug/mL) | binding result [27]: no binding (tested: 10 ug/mL) | binding result [28]: no binding | binding result [29]: no binding
B2: Comparative antibody 1 (Comp-1) scFv, SEQ ID NO: 10 from WO2023/037125 A1, His-tagged (scFv)
scFv: QVQLKESGPGLVQPSQTLSLTCTVSGFSVASYDMHWVRLPPGKGLEWMGIIWANGNTHYNSGLKSRLSISRDTSKSQVFLKMNSLQTEDTAIYFCTRGGFAYWGQGTLVTVSSGGGGSGGGGSGGGGSGGGGSDVVMTQTPVSLSVSLGGQVSISCRSSQSLVHNNGNTYLSWYLQKPGQSPQLLIYKVSNRFSGVSDRFSGSGSGTDFTLKISRVEPDDLGVYYCGQGTQYPTFGGGTKLELKHHHHHH
